Measured values as given in PMC4855880 (Developmental cell, 2016).

Target: Rvs167 (1-265)/161 heterodimer (S. cerevisiae, UniProt P39743 1-265; P25343 1-265)
Assay: liposome flotation

B1: GST-Cmd1 (natural protein)
chain: not shown
B1 was tested, and the “stoichiometry N” value was ~0.25 calmodulin per heterodimer.
